Results taken from patent US20160264649A1.

Key:
Experiment in all cases: cell-based or functional assay
[1] = molecular target: HIV-1 Env of pseudovirus isolate MGRM-G-017 (subtype G) (HIV-1)
[2] = molecular target: HIV-1 Env of pseudovirus isolate MGRM-G-028 (subtype G) (HIV-1)
[3] = molecular target: HIV-1 Env of isolate 92UG046 (subtype D) (HIV-1)
[4] = molecular target: HIV-1 Env of isolate 92UG001 (subtype D) (HIV-1)
[5] = molecular target: HIV-1 Env of pseudovirus isolate MGRM-G-014 (subtype G) (HIV-1)
[6] = molecular target: HIV-1 Env of pseudovirus isolate MGRM-G-009 (subtype G) (HIV-1)
[7] = molecular target: HIV-1 Env of isolate 98CN006 (subtype CRF08_BC) (HIV-1)
[8] = molecular target: HIV-1 Env of pseudovirus isolate MGRM-G-024 (subtype G) (HIV-1)
[9] = molecular target: HIV-1 Env of pseudovirus isolate MGRM-G-015 (subtype G) (HIV-1)
[10] = molecular target: HIV-1 Env of pseudovirus isolate MGRM-G-027 (subtype G) (HIV-1)
[11] = molecular target: HIV-1 Env of pseudovirus isolate MGRM-G-006 (subtype G) (HIV-1)
[12] = molecular target: HIV-1 Env of pseudovirus isolate MGRM-G-011 (subtype G) (HIV-1)
[13] = molecular target: HIV-1 Env of pseudovirus isolate MGRM-G-019 (subtype G) (HIV-1)
[14] = molecular target: HIV-1 Env of pseudovirus isolate MGRM-G-004 (subtype G) (HIV-1)
[15] = molecular target: HIV-1 Env of isolate 92UG024 (subtype D) (HIV-1)
[16] = molecular target: HIV-1 Env of pseudovirus isolate MGRM-G-001 (subtype G) (HIV-1)
[17] = molecular target: HIV-1 Env of pseudovirus isolate MGRM-G-013 (subtype G) (HIV-1)
[18] = molecular target: HIV-1 Env of pseudovirus isolate MGRM-G-025 (subtype G) (HIV-1)
[19] = molecular target: HIV-1 Env of isolate 98CN009 (subtype CRF07_BC) (HIV-1)
[20] = molecular target: HIV-1 Env of isolate 92UG005 (subtype D) (HIV-1)
[21] = molecular target: HIV-1 Env of pseudovirus isolate MGRM-G-016 (subtype G) (HIV-1)
[22] = molecular target: envelope of aMLV pseudovirus (negative control)

Sequence of PGT-143 (antibody) (VH): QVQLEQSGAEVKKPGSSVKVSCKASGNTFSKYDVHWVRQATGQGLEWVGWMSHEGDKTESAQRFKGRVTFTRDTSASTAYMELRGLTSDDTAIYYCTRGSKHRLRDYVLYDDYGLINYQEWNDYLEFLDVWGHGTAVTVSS
Sequence of PGT-143 (antibody) (VL): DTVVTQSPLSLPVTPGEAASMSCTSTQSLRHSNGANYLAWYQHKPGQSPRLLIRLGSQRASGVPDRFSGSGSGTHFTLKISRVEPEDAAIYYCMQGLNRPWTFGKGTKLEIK
Sequence of PGT-144 (antibody) (VH): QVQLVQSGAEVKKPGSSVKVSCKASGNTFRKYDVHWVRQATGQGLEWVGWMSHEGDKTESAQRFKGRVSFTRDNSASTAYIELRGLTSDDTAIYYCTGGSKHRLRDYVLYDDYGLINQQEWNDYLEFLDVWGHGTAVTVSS
Sequence of PGT-144 (antibody) (VL): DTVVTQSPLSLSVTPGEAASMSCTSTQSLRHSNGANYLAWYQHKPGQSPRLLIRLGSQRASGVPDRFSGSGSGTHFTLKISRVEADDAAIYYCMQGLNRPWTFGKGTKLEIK
Sequence of PGT-142 (antibody) (VH): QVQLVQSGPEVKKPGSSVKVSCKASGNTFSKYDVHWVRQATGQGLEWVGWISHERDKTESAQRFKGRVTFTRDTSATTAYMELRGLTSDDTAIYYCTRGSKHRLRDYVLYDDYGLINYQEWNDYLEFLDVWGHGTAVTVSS
Sequence of PGT-142 (antibody) (VL): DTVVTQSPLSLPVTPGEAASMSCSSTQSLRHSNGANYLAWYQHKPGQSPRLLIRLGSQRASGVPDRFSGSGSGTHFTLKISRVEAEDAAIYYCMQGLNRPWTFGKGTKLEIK
Sequence of PGT-145 (antibody) (VH): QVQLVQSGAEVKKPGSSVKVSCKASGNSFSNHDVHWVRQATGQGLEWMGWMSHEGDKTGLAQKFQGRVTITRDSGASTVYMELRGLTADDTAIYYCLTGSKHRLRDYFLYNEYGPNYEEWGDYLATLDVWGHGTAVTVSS
Sequence of PGT-145 (antibody) (VL): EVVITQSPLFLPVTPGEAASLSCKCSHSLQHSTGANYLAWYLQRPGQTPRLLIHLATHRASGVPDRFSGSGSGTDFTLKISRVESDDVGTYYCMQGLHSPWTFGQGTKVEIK
Sequence of PGT-141 (antibody) (VH): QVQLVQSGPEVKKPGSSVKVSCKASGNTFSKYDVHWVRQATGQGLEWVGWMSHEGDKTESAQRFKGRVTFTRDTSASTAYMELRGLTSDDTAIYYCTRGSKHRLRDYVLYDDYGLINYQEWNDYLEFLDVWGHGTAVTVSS

## PGT-141 (antibody)
[1]
  IC50: 0.164 µg/mL
[2]
  IC50: 24.9 µg/mL
[3]
  IC50 (neutralization): > 50 µg/mL
[4]
  IC50 (neutralization): > 50 µg/mL
[5]
  IC50: 0.222 µg/mL
[6]
  IC50: 1.89 µg/mL
[7]
  IC50 (neutralization): > 50 µg/mL
[8]
  IC50: 0.051 µg/mL
[9]
  IC50: > 50 µg/mL
[10]
  IC50: > 50 µg/mL
[11]
  IC50: 0.043 µg/mL
[12]
  IC50: 0.086 µg/mL
[13]
  IC50: 20.3 µg/mL
[14]
  IC50: > 50 µg/mL
[15]
  IC50 (neutralization): > 50 µg/mL
[16]
  IC50: 0.392 µg/mL
[17]
  IC50: > 50 µg/mL
[18]
  IC50: > 50 µg/mL
[19]
  IC50 (neutralization): 1.28 µg/mL
[20]
  IC50 (neutralization): > 50 µg/mL
[21]
  IC50: 4.69 µg/mL
[22]
  IC50: > 50 µg/mL

## PGT-142 (antibody)
[1]
  IC50: 0.125 µg/mL
[2]
  IC50: 30.3 µg/mL
[3]
  IC50 (neutralization): > 50 µg/mL
[4]
  IC50 (neutralization): > 50 µg/mL
[5]
  IC50: 0.076 µg/mL
[6]
  IC50: 2.81 µg/mL
[7]
  IC50 (neutralization): > 50 µg/mL
[8]
  IC50: 0.054 µg/mL
[9]
  IC50: > 50 µg/mL
[10]
  IC50: > 50 µg/mL
[11]
  IC50: 0.019 µg/mL
[12]
  IC50: 0.046 µg/mL
[13]
  IC50: 5.95 µg/mL
[14]
  IC50: > 50 µg/mL
[15]
  IC50 (neutralization): > 50 µg/mL
[16]
  IC50: 0.362 µg/mL
[17]
  IC50: > 50 µg/mL
[18]
  IC50: > 50 µg/mL
[19]
  IC50 (neutralization): 4 µg/mL
[20]
  IC50 (neutralization): > 50 µg/mL
[21]
  IC50: 8.17 µg/mL
[22]
  IC50: > 50 µg/mL

## PGT-143 (antibody)
[1]
  IC50: 0.107 µg/mL
[2]
  IC50: 43 µg/mL
[3]
  IC50 (neutralization): > 50 µg/mL
[4]
  IC50 (neutralization): > 50 µg/mL
[5]
  IC50: 0.107 µg/mL
[6]
  IC50: 2.97 µg/mL
[7]
  IC50 (neutralization): > 50 µg/mL
[8]
  IC50: 0.048 µg/mL
[9]
  IC50: > 50 µg/mL
[10]
  IC50: > 50 µg/mL
[11]
  IC50: 0.031 µg/mL
[12]
  IC50: 0.074 µg/mL
[13]
  IC50: 4.77 µg/mL
[14]
  IC50: > 50 µg/mL
[15]
  IC50 (neutralization): > 50 µg/mL
[16]
  IC50: 0.423 µg/mL
[17]
  IC50: > 50 µg/mL
[18]
  IC50: > 50 µg/mL
[19]
  IC50 (neutralization): 10.2 µg/mL
[20]
  IC50 (neutralization): > 50 µg/mL
[21]
  IC50: 7.6 µg/mL
[22]
  IC50: > 50 µg/mL

## PGT-144 (antibody)
[1]
  IC50: 9.97 µg/mL
[2]
  IC50: > 50 µg/mL
[3]
  IC50 (neutralization): > 50 µg/mL
[4]
  IC50 (neutralization): > 50 µg/mL
[5]
  IC50: 0.562 µg/mL
[6]
  IC50: > 50 µg/mL
[7]
  IC50 (neutralization): > 50 µg/mL
[8]
  IC50: 7.92 µg/mL
[9]
  IC50: > 50 µg/mL
[10]
  IC50: > 50 µg/mL
[11]
  IC50: 3.84 µg/mL
[12]
  IC50: 1.58 µg/mL
[13]
  IC50: > 50 µg/mL
[14]
  IC50: > 50 µg/mL
[15]
  IC50 (neutralization): > 50 µg/mL
[16]
  IC50: > 50 µg/mL
[17]
  IC50: > 50 µg/mL
[18]
  IC50: > 50 µg/mL
[19]
  IC50 (neutralization): > 50 µg/mL
[20]
  IC50 (neutralization): > 50 µg/mL
[21]
  IC50: > 50 µg/mL
[22]
  IC50: > 50 µg/mL

## PGT-145 (antibody)
[1]
  IC50: 0.205 µg/mL
[2]
  IC50: 0.046 µg/mL
[3]
  IC50 (neutralization): > 50 µg/mL
[4]
  IC50 (neutralization): > 50 µg/mL
[5]
  IC50: 0.144 µg/mL
[6]
  IC50: 0.982 µg/mL
[7]
  IC50 (neutralization): > 50 µg/mL
[8]
  IC50: 0.06 µg/mL
[9]
  IC50: 10.5 µg/mL
[10]
  IC50: 0.433 µg/mL
[11]
  IC50: 0.286 µg/mL
[12]
  IC50: 0.028 µg/mL
[13]
  IC50: 0.041 µg/mL
[14]
  IC50: > 50 µg/mL
[15]
  IC50 (neutralization): 1.6 µg/mL
[16]
  IC50: 0.028 µg/mL
[17]
  IC50: > 50 µg/mL
[18]
  IC50: > 50 µg/mL
[19]
  IC50 (neutralization): 0.136 µg/mL
[20]
  IC50 (neutralization): > 50 µg/mL
[21]
  IC50: 0.081 µg/mL
[22]
  IC50: > 50 µg/mL
